What all share (experiment): cryo-EM structure; purified Wzc at ~2 mg/ml in LMNG, incubated with 1 mM ADP and 10 mM MgCl2 at 4 °C for 1 h; maps refined without symmetry (C1) or with C8 symmetry; octamer of one protein
Assay [1] has as its target Wzc^K540M2YE (K540M, Y718E, Y717E) from E. coli serotype K30 (E. coli K30) (UniProt P76387).
The target in assay [2] is Wzc^K540M3YE (K540M, Y718E, Y717E and Y715E) from E. coli serotype K30 (E. coli K30) (UniProt P76387).
Assay [3] concerns the target Wzc^K540M3YE_N711Y (K540M, Y718E, Y717E, Y715E and N711Y) from E. coli serotype K30 (E. coli K30) (UniProt P76387).

The substance “Wzc^K540M2YE (K540M, Y718E, Y717E) from E. coli serotype K30 (from UniProt P76387 1-720) (enzyme)” registered a stoichiometry N in assay [1] of 8.

As to “Wzc^K540M3YE (K540M, Y718E, Y717E and Y715E) from E. coli serotype K30 (from UniProt P76387 1-720) (enzyme)”, in assay [2], the stoichiometry N amounted to 8.

As to “Wzc^K540M3YE_N711Y (K540M, Y718E, Y717E, Y715E and N711Y) from E. coli serotype K30 (from UniProt P76387 1-720) (enzyme)”, in assay [3], the stoichiometry N stood at 8.

What is called stoichiometry N is the number of molecules, sites or subunits per partner or assembly.

Source of the values: article PMC11986026.
